According to patent US20140087995A1 (published 2014):
Numbered stars: 1 amine (or outer) side, 2 acyl side, 3 side chain; on linkers, the order of the positions; unused ones are H or OH. Bridge positions count the residues as written; N and C are the ends. Side chains are listed from the residue outwards. Ends that are not written are not given here. * marks the point of attachment. C20 diacid = O=C(O)CCCCCCCCCCCCCCCCCCC(=O)*; γGlu = O=C(O)[C@H](CCC(=O)[*:2])N[*:1]

T1: human amylin receptor (amylin 3(a) receptor: human calcitonin receptor with RAMP-3) (human, UniProt P30988 25-474; O60896 24-148)
T1 construct: whole, on cells; also called hAmylin-R; hAmylinR
T1 sequence (looked up) 1: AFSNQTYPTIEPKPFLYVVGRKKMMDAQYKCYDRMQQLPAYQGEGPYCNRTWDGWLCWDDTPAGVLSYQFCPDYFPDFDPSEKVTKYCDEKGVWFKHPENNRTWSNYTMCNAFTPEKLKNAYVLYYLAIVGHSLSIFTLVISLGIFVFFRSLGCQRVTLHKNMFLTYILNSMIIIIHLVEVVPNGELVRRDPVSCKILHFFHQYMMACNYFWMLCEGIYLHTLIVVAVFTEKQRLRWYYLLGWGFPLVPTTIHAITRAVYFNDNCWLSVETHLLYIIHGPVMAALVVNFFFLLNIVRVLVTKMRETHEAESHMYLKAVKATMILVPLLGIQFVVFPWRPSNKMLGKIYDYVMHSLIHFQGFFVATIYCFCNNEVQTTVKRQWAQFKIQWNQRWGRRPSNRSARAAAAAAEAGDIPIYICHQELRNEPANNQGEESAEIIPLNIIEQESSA
T1 sequence (looked up) 2: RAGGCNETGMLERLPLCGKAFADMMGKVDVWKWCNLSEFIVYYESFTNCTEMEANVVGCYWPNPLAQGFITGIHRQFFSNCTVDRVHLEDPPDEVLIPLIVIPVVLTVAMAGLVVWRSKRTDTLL

B1: N^ε1-[(4S)-4-carboxy-4-(19-carboxynonadecanoylamino)butanoyl]-[Arg17,Pro21,Pro27,Arg34]-h-amylin (peptide)
peptide: K([γGlu-C20 diacid])CNTATCATQRLANFLRHSSPNFGAIPSSTNVGRNTY-NH2
modifications: disulfide 2-7; N-terminus assumed
SMILES: CC[C@H](C)[C@H](NC(=O)[C@H](C)NC(=O)CNC(=O)[C@H](Cc1ccccc1)NC(=O)[C@H](CC(N)=O)NC(=O)[C@@H]1CCCN1C(=O)[C@H](CO)NC(=O)[C@H](CO)NC(=O)[C@H](Cc1c[nH]cn1)NC(=O)[C@H](CCCNC(=N)N)NC(=O)[C@H](CC(C)C)NC(=O)[C@H](Cc1ccccc1)NC(=O)[C@H](CC(N)=O)NC(=O)[C@H](C)NC(=O)[C@H](CC(C)C)NC(=O)[C@H](CCCNC(=N)N)NC(=O)[C@H](CCC(N)=O)NC(=O)[C@@H](NC(=O)[C@H](C)NC(=O)[C@@H]1CSSC[C@H](NC(=O)[C@@H](N)CCCCNC(=O)CC[C@H](NC(=O)CCCCCCCCCCCCCCCCCCC(=O)O)C(=O)O)C(=O)N[C@@H](CC(N)=O)C(=O)N[C@@H]([C@@H](C)O)C(=O)N[C@@H](C)C(=O)N[C@@H]([C@@H](C)O)C(=O)N1)[C@@H](C)O)C(=O)N1CCC[C@H]1C(=O)N[C@@H](CO)C(=O)N[C@@H](CO)C(=O)N[C@H](C(=O)N[C@@H](CC(N)=O)C(=O)N[C@H](C(=O)NCC(=O)N[C@@H](CCCNC(=N)N)C(=O)N[C@@H](CC(N)=O)C(=O)N[C@H](C(=O)N[C@@H](Cc1ccc(O)cc1)C(N)=O)[C@@H](C)O)C(C)C)[C@@H](C)O
notes: also called 79; compound 79
B2: N^ε1-[(4S)-4-carboxy-4-(19-carboxynonadecanoylamino)butanoyl]-[Glu14,Arg17,Pro21,Pro27,Arg35]-h-amylin (peptide)
peptide: K([γGlu-C20 diacid])CNTATCATQRLAEFLRHSSPNFGAIPSSTNVGSRTY-NH2
modifications: disulfide 2-7; N-terminus assumed
SMILES: CC[C@H](C)[C@H](NC(=O)[C@H](C)NC(=O)CNC(=O)[C@H](Cc1ccccc1)NC(=O)[C@H](CC(N)=O)NC(=O)[C@@H]1CCCN1C(=O)[C@H](CO)NC(=O)[C@H](CO)NC(=O)[C@H](Cc1c[nH]cn1)NC(=O)[C@H](CCCNC(=N)N)NC(=O)[C@H](CC(C)C)NC(=O)[C@H](Cc1ccccc1)NC(=O)[C@H](CCC(=O)O)NC(=O)[C@H](C)NC(=O)[C@H](CC(C)C)NC(=O)[C@H](CCCNC(=N)N)NC(=O)[C@H](CCC(N)=O)NC(=O)[C@@H](NC(=O)[C@H](C)NC(=O)[C@@H]1CSSC[C@H](NC(=O)[C@@H](N)CCCCNC(=O)CC[C@H](NC(=O)CCCCCCCCCCCCCCCCCCC(=O)O)C(=O)O)C(=O)N[C@@H](CC(N)=O)C(=O)N[C@@H]([C@@H](C)O)C(=O)N[C@@H](C)C(=O)N[C@@H]([C@@H](C)O)C(=O)N1)[C@@H](C)O)C(=O)N1CCC[C@H]1C(=O)N[C@@H](CO)C(=O)N[C@@H](CO)C(=O)N[C@H](C(=O)N[C@@H](CC(N)=O)C(=O)N[C@H](C(=O)NCC(=O)N[C@@H](CO)C(=O)N[C@@H](CCCNC(=N)N)C(=O)N[C@H](C(=O)N[C@@H](Cc1ccc(O)cc1)C(N)=O)[C@@H](C)O)C(C)C)[C@@H](C)O
notes: also called 51; compound 51
B3: N^ε1-[(4S)-4-carboxy-4-(19-carboxynonadecanoylamino)butanoyl]-[Arg17,Pro21,Pro27,Glu35]-h-amylin (peptide)
peptide: K([γGlu-C20 diacid])CNTATCATQRLANFLRHSSPNFGAIPSSTNVGSETY-NH2
modifications: disulfide 2-7; N-terminus assumed
SMILES: CC[C@H](C)[C@H](NC(=O)[C@H](C)NC(=O)CNC(=O)[C@H](Cc1ccccc1)NC(=O)[C@H](CC(N)=O)NC(=O)[C@@H]1CCCN1C(=O)[C@H](CO)NC(=O)[C@H](CO)NC(=O)[C@H](Cc1c[nH]cn1)NC(=O)[C@H](CCCNC(=N)N)NC(=O)[C@H](CC(C)C)NC(=O)[C@H](Cc1ccccc1)NC(=O)[C@H](CC(N)=O)NC(=O)[C@H](C)NC(=O)[C@H](CC(C)C)NC(=O)[C@H](CCCNC(=N)N)NC(=O)[C@H](CCC(N)=O)NC(=O)[C@@H](NC(=O)[C@H](C)NC(=O)[C@@H]1CSSC[C@H](NC(=O)[C@@H](N)CCCCNC(=O)CC[C@H](NC(=O)CCCCCCCCCCCCCCCCCCC(=O)O)C(=O)O)C(=O)N[C@@H](CC(N)=O)C(=O)N[C@@H]([C@@H](C)O)C(=O)N[C@@H](C)C(=O)N[C@@H]([C@@H](C)O)C(=O)N1)[C@@H](C)O)C(=O)N1CCC[C@H]1C(=O)N[C@@H](CO)C(=O)N[C@@H](CO)C(=O)N[C@H](C(=O)N[C@@H](CC(N)=O)C(=O)N[C@H](C(=O)NCC(=O)N[C@@H](CO)C(=O)N[C@@H](CCC(=O)O)C(=O)N[C@H](C(=O)N[C@@H](Cc1ccc(O)cc1)C(N)=O)[C@@H](C)O)C(C)C)[C@@H](C)O
notes: also called 27; compound 27
B4: N^ε1-[(4S)-4-carboxy-4-(19-carboxynonadecanoylamino)butanoyl]-[Arg17,Pro21,Pro27,His34]-h-amylin (peptide)
peptide: K([γGlu-C20 diacid])CNTATCATQRLANFLRHSSPNFGAIPSSTNVGHNTY-NH2
modifications: disulfide 2-7; N-terminus assumed
SMILES: CC[C@H](C)[C@H](NC(=O)[C@H](C)NC(=O)CNC(=O)[C@H](Cc1ccccc1)NC(=O)[C@H](CC(N)=O)NC(=O)[C@@H]1CCCN1C(=O)[C@H](CO)NC(=O)[C@H](CO)NC(=O)[C@H](Cc1c[nH]cn1)NC(=O)[C@H](CCCNC(=N)N)NC(=O)[C@H](CC(C)C)NC(=O)[C@H](Cc1ccccc1)NC(=O)[C@H](CC(N)=O)NC(=O)[C@H](C)NC(=O)[C@H](CC(C)C)NC(=O)[C@H](CCCNC(=N)N)NC(=O)[C@H](CCC(N)=O)NC(=O)[C@@H](NC(=O)[C@H](C)NC(=O)[C@@H]1CSSC[C@H](NC(=O)[C@@H](N)CCCCNC(=O)CC[C@H](NC(=O)CCCCCCCCCCCCCCCCCCC(=O)O)C(=O)O)C(=O)N[C@@H](CC(N)=O)C(=O)N[C@@H]([C@@H](C)O)C(=O)N[C@@H](C)C(=O)N[C@@H]([C@@H](C)O)C(=O)N1)[C@@H](C)O)C(=O)N1CCC[C@H]1C(=O)N[C@@H](CO)C(=O)N[C@@H](CO)C(=O)N[C@H](C(=O)N[C@@H](CC(N)=O)C(=O)N[C@H](C(=O)NCC(=O)N[C@@H](Cc1c[nH]cn1)C(=O)N[C@@H](CC(N)=O)C(=O)N[C@H](C(=O)N[C@@H](Cc1ccc(O)cc1)C(N)=O)[C@@H](C)O)C(C)C)[C@@H](C)O
notes: also called 77; compound 77
B5: N^ε1-[(4S)-4-carboxy-4-(19-carboxynonadecanoylamino)butanoyl]-[Arg17,Pro21,Pro27,His35]-h-amylin (peptide)
peptide: K([γGlu-C20 diacid])CNTATCATQRLANFLRHSSPNFGAIPSSTNVGSHTY-NH2
modifications: disulfide 2-7; N-terminus assumed
SMILES: CC[C@H](C)[C@H](NC(=O)[C@H](C)NC(=O)CNC(=O)[C@H](Cc1ccccc1)NC(=O)[C@H](CC(N)=O)NC(=O)[C@@H]1CCCN1C(=O)[C@H](CO)NC(=O)[C@H](CO)NC(=O)[C@H](Cc1c[nH]cn1)NC(=O)[C@H](CCCNC(=N)N)NC(=O)[C@H](CC(C)C)NC(=O)[C@H](Cc1ccccc1)NC(=O)[C@H](CC(N)=O)NC(=O)[C@H](C)NC(=O)[C@H](CC(C)C)NC(=O)[C@H](CCCNC(=N)N)NC(=O)[C@H](CCC(N)=O)NC(=O)[C@@H](NC(=O)[C@H](C)NC(=O)[C@@H]1CSSC[C@H](NC(=O)[C@@H](N)CCCCNC(=O)CC[C@H](NC(=O)CCCCCCCCCCCCCCCCCCC(=O)O)C(=O)O)C(=O)N[C@@H](CC(N)=O)C(=O)N[C@@H]([C@@H](C)O)C(=O)N[C@@H](C)C(=O)N[C@@H]([C@@H](C)O)C(=O)N1)[C@@H](C)O)C(=O)N1CCC[C@H]1C(=O)N[C@@H](CO)C(=O)N[C@@H](CO)C(=O)N[C@H](C(=O)N[C@@H](CC(N)=O)C(=O)N[C@H](C(=O)NCC(=O)N[C@@H](CO)C(=O)N[C@@H](Cc1c[nH]cn1)C(=O)N[C@H](C(=O)N[C@@H](Cc1ccc(O)cc1)C(N)=O)[C@@H](C)O)C(C)C)[C@@H](C)O
notes: also called 60; compound 60
B6: N^ε1-[(4S)-4-carboxy-4-(19-carboxynonadecanoylamino)butanoyl]-[Arg17,Pro21,Pro27,Lys35]-h-amylin (peptide)
peptide: K([γGlu-C20 diacid])CNTATCATQRLANFLRHSSPNFGAIPSSTNVGSKTY-NH2
modifications: disulfide 2-7; N-terminus assumed
SMILES: CC[C@H](C)[C@H](NC(=O)[C@H](C)NC(=O)CNC(=O)[C@H](Cc1ccccc1)NC(=O)[C@H](CC(N)=O)NC(=O)[C@@H]1CCCN1C(=O)[C@H](CO)NC(=O)[C@H](CO)NC(=O)[C@H](Cc1c[nH]cn1)NC(=O)[C@H](CCCNC(=N)N)NC(=O)[C@H](CC(C)C)NC(=O)[C@H](Cc1ccccc1)NC(=O)[C@H](CC(N)=O)NC(=O)[C@H](C)NC(=O)[C@H](CC(C)C)NC(=O)[C@H](CCCNC(=N)N)NC(=O)[C@H](CCC(N)=O)NC(=O)[C@@H](NC(=O)[C@H](C)NC(=O)[C@@H]1CSSC[C@H](NC(=O)[C@@H](N)CCCCNC(=O)CC[C@H](NC(=O)CCCCCCCCCCCCCCCCCCC(=O)O)C(=O)O)C(=O)N[C@@H](CC(N)=O)C(=O)N[C@@H]([C@@H](C)O)C(=O)N[C@@H](C)C(=O)N[C@@H]([C@@H](C)O)C(=O)N1)[C@@H](C)O)C(=O)N1CCC[C@H]1C(=O)N[C@@H](CO)C(=O)N[C@@H](CO)C(=O)N[C@H](C(=O)N[C@@H](CC(N)=O)C(=O)N[C@H](C(=O)NCC(=O)N[C@@H](CO)C(=O)N[C@@H](CCCCN)C(=O)N[C@H](C(=O)N[C@@H](Cc1ccc(O)cc1)C(N)=O)[C@@H](C)O)C(C)C)[C@@H](C)O
notes: also called 35; compound 35

Each binder was assayed against T1, human amylin receptor (amylin 3(a) …) (assay: SPA displacement of 125I-rat amylin, hAmylin 3(a) receptor membranes).
In short: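 Membranes from BHK Amylin 3(a)/CRE-luc cells (35 ng/μL final) were mixed with SPA beads and test compounds in 50 mM Hepes pH 7.4 with 1 mM CaCl2, 5 mM MgCl₂, 0.1% OA and 0.02% Tween20. Incubation ran 120 min at 25° C with shaking; IC₅₀ came from one-site competition fitting.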
For B1, the IC50 was 0.79 nM. B2 was tested, and the IC50 was 0.828 nM. For B3, the IC50 was 0.837 nM. With B4 the IC50 was 0.428 nM. B5 showed an IC50 of 0.695 nM. B6 gave an IC50 of 0.97 nM.
